Biological target: T1, Thrombospondin (TSP-1) (UniProt P07996 19-1170, biotinylated in the ligand blot of Example 5)
T1 construct: also called thrombospondin-1; biotinylated TSP-1
Assay: resonant mirror biosensor, peptide alone on immobilized TSP-1

T1 sequence (P07996 19-1170 limits assumed): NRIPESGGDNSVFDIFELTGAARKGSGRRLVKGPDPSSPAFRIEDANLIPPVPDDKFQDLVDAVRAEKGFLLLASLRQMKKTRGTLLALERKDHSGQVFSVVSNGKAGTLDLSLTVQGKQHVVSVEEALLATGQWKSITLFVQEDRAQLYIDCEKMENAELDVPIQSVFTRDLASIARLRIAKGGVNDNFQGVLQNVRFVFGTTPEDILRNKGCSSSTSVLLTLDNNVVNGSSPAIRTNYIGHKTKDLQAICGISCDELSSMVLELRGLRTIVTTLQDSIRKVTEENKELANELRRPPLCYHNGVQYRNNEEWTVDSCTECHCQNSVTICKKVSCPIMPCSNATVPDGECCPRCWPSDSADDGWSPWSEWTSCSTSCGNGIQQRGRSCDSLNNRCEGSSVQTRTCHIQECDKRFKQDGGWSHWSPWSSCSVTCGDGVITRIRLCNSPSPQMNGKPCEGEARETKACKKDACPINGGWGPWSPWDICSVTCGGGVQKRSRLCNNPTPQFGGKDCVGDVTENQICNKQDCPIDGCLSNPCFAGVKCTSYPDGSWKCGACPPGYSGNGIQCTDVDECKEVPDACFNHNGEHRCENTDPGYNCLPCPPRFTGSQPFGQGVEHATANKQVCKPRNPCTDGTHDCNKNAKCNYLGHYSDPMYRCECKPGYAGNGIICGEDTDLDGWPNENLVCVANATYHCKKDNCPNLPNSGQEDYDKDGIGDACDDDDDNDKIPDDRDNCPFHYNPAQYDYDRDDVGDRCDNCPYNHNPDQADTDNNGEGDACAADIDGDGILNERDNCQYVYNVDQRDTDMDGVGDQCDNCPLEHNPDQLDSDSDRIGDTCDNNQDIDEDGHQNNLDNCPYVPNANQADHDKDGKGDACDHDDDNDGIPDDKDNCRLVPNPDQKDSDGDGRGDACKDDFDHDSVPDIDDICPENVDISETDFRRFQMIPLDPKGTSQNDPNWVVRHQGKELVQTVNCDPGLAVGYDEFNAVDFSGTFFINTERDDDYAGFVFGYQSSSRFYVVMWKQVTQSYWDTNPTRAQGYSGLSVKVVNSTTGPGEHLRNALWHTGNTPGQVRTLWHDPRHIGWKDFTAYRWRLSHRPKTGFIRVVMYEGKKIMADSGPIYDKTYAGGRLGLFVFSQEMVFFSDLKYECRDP

B1: Pro-His-Ser-Arg-Asn (SEQ ID NO: 10) (peptide)
peptide: PHSRN
notes: also called random negative control peptide; control peptide
B1: no binding.

From patent US20030180295A1 (PHILADELPHIA HEALTH AND EDUCATION, published 2003)
